Measured values as given in PMC2196205.

Columns and labels:
[1] = target: T1, Zif268 (mouse, UniProt P08046 333-421); assay: SPR
[2] = target: T1, Zif268; assay: SPR; remark: listed apart in the source
[3] = target: T1, Zif268; assay: ELISA

GGTTAGGGTTAGGGTTAGGGTTAGGGTTAG (structured_DNA) [Htelo]
binding result [1]: no binding

B1: ZifDNA (dsDNA)
DNA 1: GGCATAGTGCGTGGGCGTTAGC
DNA 2: GCTAACGCCCACGCACTATGCC
Kd [2]: 5.3 ± 1.5 nM | Kd [3]: 12 ± 5 nM
